{
  "source": "patent US7838294B2",
  "about": "“Inhibitors of the JNK signal transduction pathway and methods of use” (University of Massachusetts, priority 1997, dated 2010)",
  "target": "T1, JNK (Homo sapiens, UniProt P45983)",
  "T1 construct": "expressed in transfected cells; host or cells: COS-1 cells (co-immunoprecipitation)",
  "T1 sequence (P45983 1-384 isoform P45983-2)": "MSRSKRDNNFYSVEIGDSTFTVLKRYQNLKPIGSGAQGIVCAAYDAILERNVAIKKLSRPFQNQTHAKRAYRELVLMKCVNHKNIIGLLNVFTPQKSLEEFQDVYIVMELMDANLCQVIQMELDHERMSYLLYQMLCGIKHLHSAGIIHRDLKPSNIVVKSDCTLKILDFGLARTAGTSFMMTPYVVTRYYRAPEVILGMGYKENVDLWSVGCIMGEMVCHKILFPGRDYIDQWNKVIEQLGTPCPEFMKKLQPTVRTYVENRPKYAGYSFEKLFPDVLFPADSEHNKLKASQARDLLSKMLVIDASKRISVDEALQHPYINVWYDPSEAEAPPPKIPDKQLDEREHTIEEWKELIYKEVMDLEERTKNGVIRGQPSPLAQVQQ",
  "experiment": "Immunofluorescence: subcellular distribution of JNK on JIP-1 expression",
  "format": "cell-based",
  "conditions": "HA-JNK1 with Flag-JIP-1; control and UV-irradiated cells",
  "protocol": "The subcellular distribution of JIP-1 was analyzed by performing indirect immunofluorescence on JIP-1-expressing cells. In these experiments, the cells were grown on coverslips, fixed with 4% paraformaldehyde, permeabilized with 0.25% Triton X-100, and processed for immunofluorescence microscopy. JIP-1 was detected in the cytoplasm, but not the nucleus, of control and UV-irradiated cells. In contrast, JNK is detected in both the cytoplasmic and nuclear compartments.\nIt is likely that it is JNK in the nucleus which is involved in the regulation of gene expression. Since JIP-1 is cytoplasmic, it was unclear how it could inhibit the nuclear function of JNK. To investigate the mechanism of JIP-1 action, the distribution of JNK was examined in cells that had been transfected with either hemagglutinin (HA)-tagged JNK1 (HA-JNK1) alone, or HA-JNK1 and Flag-tagged JIP-1 (Flag-JIP-1). In these experiments, the cells were exposed to a potent JNK activator (40 J/m^2 UV-C) for one hour prior to processing for immunofluorescence. The primary antibodies used were rabbit anti-HA (12CA5; Boehringer Mannheim), which recognizes HA-tagged JNK1; and mouse monoclonal anti-Flag (M2; IBI-Kodak), which recognizes Flag-tagged JIP-1. The secondary antibodies were Texas Red-goat anti-mouse Ig and fluoroscein isothiocyanate-conjugated donkey anti-rabbit Ig (Jackson Immunoresearch). […]",
  "data": [
    {"molecule": "JIP-1: 660 amino acid murine cytoplasmic protein that specifically binds JNK (protein) MAERESGLGGGAASPPAASPFLGLHIASPPNFRLTHDISLEEFEDEDLSEITDECGISLQCKDTLSLRPPRAGLLSAGSSGSAGSRLQAEMLQMDLIDAAGDTPGAEDDEEEEDDELAAQRPGVGPPKAESNQDPAPRSQGQGPGTGSGDTYRPKRPTTLNLFPQVPRSQDTLNNNSLGKKHSWQDRVSRSSSPLKTGEQTPPHEHICLSDELPPQGSPVPTQDRGTSTDSPCRRSAATQMAPPSGPPATAPGGRGHSHRDRIHYQADVRLEATEEIYLTPVQRPPDPAEPTSTFMPPTESRMSVSSDPDPAAYSVTAGRPHPSISEEDEGFDCLSSPERAEPPGGGWRGSLGEPPPPPRASLSSDTSALSYDSVKYTLVVDEHAQLELVSLRPCFGDYSDESDSATVYDNCASASSPYESAIGEEYEEAPQPRPPTCLSEDSTPDEPDVHFSKKFLNVFMSGRSRSSSAESFGLFSCVINGEEHEQTHRAIFRFVPRHEDELELEVDDPLLVELQAEDYWYEAYNMRTGARGVFPAYYAIEVTKEPEHMAALAKNSCVLEISVRGVKIGVKADDALEAKGNKCSHFFQLKNISFCGYHPKNNKYFGFITKHPADHRFACHVFVSEDSTKALAESVGRAFQQFYKQFVEYTCPTEDIYLE", "values": [
      {"measurement": "amount of nuclear JNK", "value": "reduces"}
    ]}
  ]
}
